Here are results for two substances from IntAct's records for PubMed 20924357.

For experiment [1], the target named is bglg_ecoli bglG (UniProt P11989).
Experiment [2] shares this target. This is another data set of the same source.
Experiment [3] has the same target. This is another data set of the same source.

Sequence of bglg_ecoli bglG (P11989 whole entry): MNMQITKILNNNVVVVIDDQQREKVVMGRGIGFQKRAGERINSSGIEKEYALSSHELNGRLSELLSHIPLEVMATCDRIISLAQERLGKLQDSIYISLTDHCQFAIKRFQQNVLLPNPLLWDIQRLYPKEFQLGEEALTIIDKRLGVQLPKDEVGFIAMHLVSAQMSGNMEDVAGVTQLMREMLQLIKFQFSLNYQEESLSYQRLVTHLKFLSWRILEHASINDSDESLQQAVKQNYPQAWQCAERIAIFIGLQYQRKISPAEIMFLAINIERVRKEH

As for “Phosphoenolpyruvate-protein phosphotransferase (Escherichia coli (strain K12)), P08839 H189A”, the “effect of a mutation on the interaction” value is “decreasing interaction” with bglg_ecoli bglG [1] and “disrupting interaction” in the experiment with bglg_ecoli bglG [2].

For “Phosphocarrier protein HPr (Escherichia coli (strain K12)), P0AA04 H15A”, the “effect of a mutation on the interaction” value in the experiment with bglg_ecoli bglG [3] was “increasing interaction”.
